Experimental data taken from patent US20180092966A1 (CSL, published 2018).
Changes are numbered by the printed parent chain. Names and notes keep the numbering of the source.

B1: Factor VIII SingleChain T1654C mutant (other)
chain: ATRRYYLGAVELSWDYMQSDLGELPVDARFPPRVPKSFPFNTSVVYKKTLFVEFTDHLFNIAKPRPPWMGLLGPTIQAEVYDTVVITLKNMASHPVSLHAVGVSYWKASEGAEYDDQTSQREKEDDKVFPGGSHTYVWQVLKENGPMASDPLCLTYSYLSHVDLVKDLNSGLIGALLVCREGSLAKEKTQTLHKFILLFAVFDEGKSWHSETKNSLMQDRDAASARAWPKMHTVNGYVNRSLPGLIGCHRKSVYWHVIGMGTTPEVHSIFLEGHTFLVRNHRQASLEISPITFLTAQTLLMDLGQFLLFCHISSHQHDGMEAYVKVDSCPEEPQLRMKNNEEAEDYDDDLTDSEMDVVRFDDDNSPSFIQIRSVAKKHPKTWVHYIAAEEEDWDYAPLVLAPDDRSYKSQYLNNGPQRIGRKYKKVRFMAYTDETFKTREAIQHESGILGPLLYGEVGDTLLIIFKNQASRPYNIYPHGITDVRPLYSRRLPKGVKHLKDFPILPGEIFKYKWTVTVEDGPTKSDPRCLTRYYSSFVNMERDLASGLIGPLLICYKESVDQRGNQIMSDKRNVILFSVFDENRSWYLTENIQRFLPNPAGVQLEDPEFQASNIMHSINGYVFDSLQLSVCLHEVAYWYILSIGAQTDFLSVFFSGYTFKHKMVYEDTLTLFPFSGETVFMSMENPGLWILGCHNSDFRNRGMTALLKVSSCDKNTGDYYEDSYEDISAYLLSKNNAIEPRSFSQNSRHRSTRQKQFNATTIPENTCLQSDQEEIDYDDTISVEMKKEDFDIYDEDENQSPRSFQKKTRHYFIAAVERLWDYGMSSSPHVLRNRAQSGSVPQFKKVVFQEFTDGSFTQPLYRGELNEHLGLLGPYIRAEVEDNIMVTFRNQASRPYSFYSSLISYEEDQRQGAEPRKNFVKPNETKTYFWKVQHHMAPTKDEFDCKAWAYFSDVDLEKDVHSGLIGPLLVCHTNTLNPAHGRQVTVQEFALFFTIFDETKSWYFTENMERNCRAPCNIQMEDPTFKENYRFHAINGYIMDTLPGLVMAQDQRIRWYLLSMGSNENIHSIHFSGHVFTVRKKEEYKMALYNLYPGVFETVEMLPSKAGIWRVECLIGEHLHAGMSTLFLVYSNKCQTPLGMASGHIRDFQITASGQYGQWAPKLARLHYSGSINAWSTKEPFSWIKVDLLAPMIIHGIKTQGARQKFSSLYISQFIIMYSLDGKKWQTYRGNSTGTLMVFFGNVDSSGIKHNIFNPPIIARYIRLHPTHYSIRSTLRMELMGCDLNSCSMPLGMESKAISDAQITASSYFTNMFATWSPSKARLHLQGRSNAWRPQVNNPKEWLQVDFQKTMKVTGVTTQGVKSLLTSMYVKEFLISSSQDGHQWTLFFQNGKVKVFQGNQDSFTPVVNSLDPPLLTRYLRIHPQSWVHQIALRMEVLGCEAQDLY
notes: Single-chain FVIII with partial B-domain deletion (per WO 2004/067566); also called FVIII-SC T1654C; Cys residue at FVIII aa position 1654
B2: Factor VIII SingleChain Q1686C mutant (other)
chain: B1 chain with C766T, Q798C
notes: Single-chain FVIII with partial B-domain deletion; also called FVIII-SC Q1686C; Cys residue at FVIII aa position 1686
B3: Factor VIII SingleChain N2129C mutant (other)
chain: B1 chain with C766T, N1241C
notes: Single-chain FVIII with partial B-domain deletion; also called FVIII-SC N2129C; Cys residue at FVIII aa position 2129
B4: Factor VIII SingleChain I1679C mutant (other)
chain: B1 chain with C766T, I791C
notes: Single-chain FVIII with partial B-domain deletion; also called FVIII-SC I1679C mutant; Cys residue at FVIII aa position 1679
B5: Factor VIII SingleChain E1684C mutant (other)
chain: B1 chain with C766T, E796C
notes: Single-chain FVIII with partial B-domain deletion; also called FVIII-SC E1684C; Cys residue at FVIII aa position 1684

Columns and labels:
[1] = biological target: VWF-FP (albumin-fused von Willebrand Factor) (human); assay: covalent-FVIII ELISA over FVIII activity assay
Chain of VWF-FP (albumin-fused von Willebrand Factor) (human) (chain, as listed by the source): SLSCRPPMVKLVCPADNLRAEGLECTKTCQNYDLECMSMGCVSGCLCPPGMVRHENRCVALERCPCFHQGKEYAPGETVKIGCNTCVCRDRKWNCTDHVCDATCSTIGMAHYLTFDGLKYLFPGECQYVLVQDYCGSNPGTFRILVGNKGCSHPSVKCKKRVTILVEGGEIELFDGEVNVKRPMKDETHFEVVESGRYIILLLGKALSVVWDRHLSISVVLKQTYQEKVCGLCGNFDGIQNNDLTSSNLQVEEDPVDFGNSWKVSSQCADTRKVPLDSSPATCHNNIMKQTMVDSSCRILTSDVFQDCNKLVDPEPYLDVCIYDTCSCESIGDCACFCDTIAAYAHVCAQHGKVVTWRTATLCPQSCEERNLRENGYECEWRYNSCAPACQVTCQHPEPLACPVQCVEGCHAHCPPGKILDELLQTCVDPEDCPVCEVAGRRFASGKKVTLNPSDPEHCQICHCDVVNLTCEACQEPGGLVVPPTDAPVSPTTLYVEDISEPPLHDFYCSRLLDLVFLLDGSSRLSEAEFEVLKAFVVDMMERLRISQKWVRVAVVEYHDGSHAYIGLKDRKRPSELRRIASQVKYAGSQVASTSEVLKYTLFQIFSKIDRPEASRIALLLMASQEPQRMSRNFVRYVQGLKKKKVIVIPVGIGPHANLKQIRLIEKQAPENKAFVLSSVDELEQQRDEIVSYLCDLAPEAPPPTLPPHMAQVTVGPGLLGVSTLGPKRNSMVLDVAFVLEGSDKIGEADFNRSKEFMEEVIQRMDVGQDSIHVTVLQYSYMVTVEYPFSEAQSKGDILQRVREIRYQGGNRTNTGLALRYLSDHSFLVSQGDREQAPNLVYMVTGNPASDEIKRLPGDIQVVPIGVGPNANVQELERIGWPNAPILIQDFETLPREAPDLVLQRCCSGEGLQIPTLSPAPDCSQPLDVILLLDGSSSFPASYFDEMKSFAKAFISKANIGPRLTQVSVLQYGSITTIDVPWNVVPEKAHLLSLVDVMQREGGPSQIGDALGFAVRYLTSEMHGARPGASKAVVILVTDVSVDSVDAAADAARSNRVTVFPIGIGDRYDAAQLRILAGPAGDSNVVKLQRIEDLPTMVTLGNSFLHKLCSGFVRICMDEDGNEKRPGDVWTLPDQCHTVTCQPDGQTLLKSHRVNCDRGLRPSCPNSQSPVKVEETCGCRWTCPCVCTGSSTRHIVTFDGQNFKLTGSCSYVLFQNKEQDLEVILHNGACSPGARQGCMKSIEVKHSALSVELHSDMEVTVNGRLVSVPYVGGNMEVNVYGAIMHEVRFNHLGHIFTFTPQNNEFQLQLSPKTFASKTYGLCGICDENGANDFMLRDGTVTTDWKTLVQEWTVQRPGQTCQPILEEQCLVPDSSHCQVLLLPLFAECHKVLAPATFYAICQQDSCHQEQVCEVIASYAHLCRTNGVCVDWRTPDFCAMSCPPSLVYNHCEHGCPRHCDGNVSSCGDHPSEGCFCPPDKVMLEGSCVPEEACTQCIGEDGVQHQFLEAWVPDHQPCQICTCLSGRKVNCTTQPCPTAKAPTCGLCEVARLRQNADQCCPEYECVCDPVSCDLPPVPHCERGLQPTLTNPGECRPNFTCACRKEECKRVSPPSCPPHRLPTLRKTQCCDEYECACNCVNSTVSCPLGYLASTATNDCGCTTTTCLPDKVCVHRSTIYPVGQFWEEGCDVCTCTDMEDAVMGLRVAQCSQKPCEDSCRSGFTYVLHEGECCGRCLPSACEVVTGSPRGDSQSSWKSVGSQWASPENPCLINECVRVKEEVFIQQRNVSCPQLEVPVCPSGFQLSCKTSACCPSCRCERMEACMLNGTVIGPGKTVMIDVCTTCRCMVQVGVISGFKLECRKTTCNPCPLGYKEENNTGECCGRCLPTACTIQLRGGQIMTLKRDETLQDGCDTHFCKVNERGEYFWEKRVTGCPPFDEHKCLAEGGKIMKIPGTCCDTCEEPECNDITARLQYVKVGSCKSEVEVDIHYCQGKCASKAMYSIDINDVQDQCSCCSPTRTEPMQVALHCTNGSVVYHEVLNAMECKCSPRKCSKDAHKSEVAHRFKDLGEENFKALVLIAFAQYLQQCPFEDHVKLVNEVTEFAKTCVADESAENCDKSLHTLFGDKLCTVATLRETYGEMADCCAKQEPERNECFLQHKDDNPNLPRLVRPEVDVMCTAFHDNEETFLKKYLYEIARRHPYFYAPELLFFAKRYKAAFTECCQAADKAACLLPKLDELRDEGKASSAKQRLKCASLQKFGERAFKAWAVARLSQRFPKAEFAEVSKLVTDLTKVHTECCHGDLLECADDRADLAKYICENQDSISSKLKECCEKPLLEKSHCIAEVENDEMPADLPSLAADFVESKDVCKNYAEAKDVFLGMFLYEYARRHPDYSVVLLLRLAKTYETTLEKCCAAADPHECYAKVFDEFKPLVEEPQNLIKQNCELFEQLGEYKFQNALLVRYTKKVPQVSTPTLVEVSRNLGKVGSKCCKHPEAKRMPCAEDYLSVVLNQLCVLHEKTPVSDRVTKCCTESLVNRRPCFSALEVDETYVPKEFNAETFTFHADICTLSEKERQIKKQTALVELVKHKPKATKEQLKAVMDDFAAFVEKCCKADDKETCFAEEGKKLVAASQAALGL

[2] = biological target: VWF-FP (albumin-fused von Willebrand Factor) (human); assay: covalent-FVIII ELISA over FVIII antigen ELISA
[3] = biological target: T1, VWF-FP P1079C mutant (albumin-fused von Willebrand Factor) (human); assay: covalent-FVIII ELISA over FVIII activity assay
T1 construct: also called VWF-FP mutant P1079C; Cys residue at VWF aa position 1079; not shown: linker between VWF and albumin, made in analogy to WO 2009/156137
T1 sequence (chain, as listed by the source P1079C P1079C): as the sequence (chain, as listed by the source) above, with P316C counted along it

[4] = biological target: T2, VWF-FP N1134C mutant (albumin-fused von Willebrand Factor) (human); assay: covalent-FVIII ELISA over FVIII activity assay
T2 construct: Stably expressed in CHO cells with furin co-transfected; also called VWF-FP mutant N1134C; Cys residue at VWF aa position 1134; not shown: linker between VWF and albumin, made in analogy to WO 2009/156137
T2 sequence (chain, as listed by the source N1134C N1134C): as the sequence (chain, as listed by the source) above, with N371C counted along it

[5] = biological target: T1, VWF-FP P1079C mutant (albumin-fused von …); assay: ELISA of co-expression supernatant: anti-VWF capture, 350 mM CaCl2 wash, anti-FVIII detection
[6] = biological target: T2, VWF-FP N1134C mutant (albumin-fused von …); assay: as above
[7] = biological target: T1, VWF-FP P1079C mutant (albumin-fused von …); assay: covalent-FVIII ELISA over FVIII antigen ELISA
[8] = biological target: T2, VWF-FP N1134C mutant (albumin-fused von …); assay: covalent-FVIII ELISA over FVIII antigen ELISA
[9] = biological target: T3, VWF-FP R768C mutant (albumin-fused von Willebrand Factor) (human); assay: covalent-FVIII ELISA over FVIII activity assay
T3 construct: Stably expressed in CHO cells with furin co-transfected; also called VWF-FP mutant R768C; Cys residue at VWF aa position 768; not shown: linker between VWF and albumin, made in analogy to WO 2009/156137
T3 sequence (chain, as listed by the source R768C R768C): as the sequence (chain, as listed by the source) above, with R5C counted along it

[10] = biological target: T4, VWF-FP K1116C mutant (albumin-fused von Willebrand Factor) (human); assay: covalent-FVIII ELISA over FVIII activity assay
T4 construct: Stably expressed in CHO cells with furin co-transfected; also called VWF-FP mutant K1116C; Cys residue at VWF aa position 1116; not shown: linker between VWF and albumin, made in analogy to WO 2009/156137
T4 sequence (chain, as listed by the source K1116C K1116C): as the sequence (chain, as listed by the source) above, with K353C counted along it

[11] = biological target: T5, VWF-FP E1015C mutant (albumin-fused von Willebrand Factor) (human); assay: covalent-FVIII ELISA over FVIII activity assay
T5 construct: Stably expressed in CHO cells with furin co-transfected; also called VWF-FP mutant E1015C; Cys residue at VWF aa position 1015; not shown: linker between VWF and albumin, made in analogy to WO 2009/156137
T5 sequence (chain, as listed by the source E1015C E1015C): as the sequence (chain, as listed by the source) above, with E252C counted along it

[12] = biological target: T3, VWF-FP R768C mutant (albumin-fused von …); assay: ELISA of co-expression supernatant: anti-VWF capture, 350 mM CaCl2 wash, anti-FVIII detection
[13] = biological target: T4, VWF-FP K1116C mutant (albumin-fused von …); assay: as above
[14] = biological target: T5, VWF-FP E1015C mutant (albumin-fused von …); assay: as above
[15] = biological target: T3, VWF-FP R768C mutant (albumin-fused von …); assay: covalent-FVIII ELISA over FVIII antigen ELISA
[16] = biological target: T4, VWF-FP K1116C mutant (albumin-fused von …); assay: covalent-FVIII ELISA over FVIII antigen ELISA
[17] = biological target: T5, VWF-FP E1015C mutant (albumin-fused von …); assay: covalent-FVIII ELISA over FVIII antigen ELISA
[18] = biological target: T6, VWF-FP H817C mutant (albumin-fused von Willebrand Factor) (human); assay: covalent-FVIII ELISA over FVIII activity assay
T6 construct: Stably expressed in CHO cells with furin co-transfected; also called VWF-FP mutant H817C; Cys residue at VWF aa position 817; not shown: linker between VWF and albumin, made in analogy to WO 2009/156137
T6 sequence (chain, as listed by the source H817C H817C): as the sequence (chain, as listed by the source) above, with H54C counted along it

[19] = biological target: T6, VWF-FP H817C mutant (albumin-fused von …); assay: ELISA of co-expression supernatant: anti-VWF capture, 350 mM CaCl2 wash, anti-FVIII detection
[20] = biological target: T6, VWF-FP H817C mutant (albumin-fused von …); assay: covalent-FVIII ELISA over FVIII antigen ELISA

Row | Molecule | ratio covalent FVIII/Total FVIII activity [3] | ratio covalent FVIII/Total FVIII activity [4] | covalent FVIII [5] | covalent FVIII [6] | ratio covalent FVIII/Total FVIII antigen [7] | ratio covalent FVIII/Total FVIII antigen [8] | ratio covalent FVIII/Total FVIII activity [9] | ratio covalent FVIII/Total FVIII activity [10] | covalent FVIII [12] | covalent FVIII [13] | ratio covalent FVIII/Total FVIII antigen [15] | ratio covalent FVIII/Total FVIII antigen [16] | other results
1 | FVIII-SingleChain with VWF-derived C3-C4-C5-C6-CK sequence added to its C-terminus and a thrombin cleavage site between them | – | – | – | – | – | – | – | – | – | – | – | – | ratio of covalent FVIII to total FVIII activity [1]: 5.78; ratio of covalent FVIII to total FVIII antigen [2]: 7.47
2 | B1 | 1.59 | 1.14 | 409 amU/ml | 424 amU/ml | 0.97 | 0.85 | – | – | – | – | – | – | –
3 | B2 | – | 0.76 | – | 693 amU/ml | – | 5.43 | 1.03 | 0.86 | 506 amU/ml | 2740 amU/ml | 0.51 | 5.24 | ratio covalent FVIII/Total FVIII activity [11]: 1.21; covalent FVIII [14]: 1640 amU/ml; ratio covalent FVIII/Total FVIII antigen [17]: 0.64
4 | B3 | – | – | – | – | – | – | – | – | – | – | – | – | ratio covalent FVIII/Total FVIII activity [18]: 1.02; covalent FVIII [19]: 292 amU/ml; ratio covalent FVIII/Total FVIII antigen [20]: 0.33
5 | B4 | 1.26 | – | 398 amU/ml | – | 1.14 | – | – | 1.12 | – | 992 amU/ml | – | 0.85 | –
6 | B5 | – | 0.88 | – | 741 amU/ml | – | 3.15 | 1.05 | 0.38 | 491 amU/ml | 1150 amU/ml | 0.69 | 1.53 | –
